According to patent US11819542B2, “Immunotherapeutic method for treating lung cancer by administering a polypeptide comprising an epitope of hZP3” (Pantarhei Bioscience B.V., priority 2017, dated 2023):

How the values were obtained:
[1] = system: hZP3-positive B16-HLA-A2 melanoma tumor; assay: Therapeutic immunization of HLA-A2 transgenic mice with ZP3-expressing tumor: tumor size; format: in vivo; settings: female HLA-A2 transgenic mice, ZP3 expressing tumors, 2 s.c. immunizations (prime D7-10, boost D14-17) plus GM-CSF/CpG, tumor size increased with PBS
Protocol: (§1) FIG. 5: Schedule for administration of hZP3-positive B16-HLA-A2 melanoma tumor cells and an hZP3 peptide-mixture (comprising peptides 4, 5, 6, 8 and 9 in Table 5), or rhZP3^1-383 protein to HLA-A2 transgenic mice. On Day 0 (D0), a tumor injection with 10^6 cells/mouse was given subcutaneously (s.c.). Thereafter, the prime injection was administered 7 to 10 days (D7-10) and a boost injection on Day 14 to Day 17 (D14-17). Tumor size was monitored after treatment. At Day 30 to 35, mice were sacrificed to determine hZP3 specific CD8^+ responses (ELISpot).
An in vivo pre-clinical efficacy study has been conducted to assess the immune response and the anti-tumor response after immunization with rhZP3 polypeptide (aa 1-383 with his-tag) and 5 different ZP3 epitopes. The hZP3 epitopes were selected based on CD8^+ T cell responses observed during previously performed immunogenicity experiments with rhZP3 polypeptide (aa 1-383) and with pools of peptides comprising hZP3 epitopes as indicated (see Table 5) combined with different adjuvants (data not shown). The peptides were synthesized by Pepscan (the Netherlands) at a purity >96%. […]
(§2) On Day 0 (DO), a tumor injection with 10^6 cells/mouse (s.c.) was given. […] Tumor size was monitored after treatment. […]

[2] = system: hZP3 specific CD8^+ responses; assay: ZP3 specific CD8+ T cell response after immunization (interferon-γ ELISpot); format: in vivo; settings: HLA-A2 transgenic mice with ZP3 expressing tumors, after prime and boost immunization plus GM-CSF/CpG, Day 30 to 35
Protocol: as §1
FIG. 7: CD8^+ T cell responses as determined by interferon-γ (IFNg) ELISpot as measured against the peptides (all 5 or peptides 4, 5, 6, 8 or 9 individually) after immunization with the mixture of the 5 hZP3 peptides (peptide), or after immunization with the rhZP3^1-383 protein ZP3 (prot).
An in vivo pre-clinical efficacy study has been conducted to assess the immune response and the anti-tumor response after immunization with rhZP3 polypeptide (aa 1-383 with his-tag) and 5 different ZP3 epitopes. […]
as §2

[3] = listed as hZP3 polypeptide (aa 1-383)

B1: rhZP3 protein: rhZP3 polypeptide (aa 1-383 with his-tag), 100 μg s.c. plus GM-CSF/CpG as adjuvant (protein)
chain: QPLWLLQGGASHPETSVQPVLVECQEATLMVMVSKDLFGTGKLIRAADLTLGPEACEPLVSMDTEDVVRFEVGLHECGNSMQVTDDALVYSTFLLHDPRPVGNLSIVRTNRAEIPIECRYPRQGNVSSQAILPTWLPFRTTVFSEEKLTFSLRLMEENWNAEKRSPTFHLGDAAHLQAEIHTGSHVPLRLFVDHCVATPTPDQNASPYHTIVDFHGCLVDGLTDASSAFKVPRPGPDTLQFTVDVFHFANDSRNMIYITCHLKVTLAEQDPDELNKACSFSKPSNSWFPVEGSADICQCCNKGDCGTPSHSRRQPHVMSQWSRSASRN
- Tumor size after treatment [1]: no growth of the tumor was observed
- Tumor size after treatment [1, 3]: no increase in tumor size was observed
- CD8^+ T cell response (IFNg ELISpot) ([2]; listed as ZP3 protein): a TCD8 response was observed
- CD8^+ T cell response (IFNg ELISpot) [2, 3]: induced CD8^+ T cells
